Source: patent US20220143148A1, “COMPOSITIONS AND METHODS FOR MODULATING CGRP SIGNALING TO REGULATE INTESTINAL INNATE LYMPHOID CELLS” (The Broad Institute, Inc., priority 2019, published 2022)

System: small intestinal immune cells
Test: Droplet-based scRNA-seq of small intestinal immune cells (LP and PP), OVA vs PBS, clustering and differential expression
Format: in vivo, mouse
Conditions: PP, cluster ID 6
From the text: To comprehensively characterize small intestinal immune cells, Applicants generated scRNA-Seq profiles for 58,067 immune cells collected from lamina propria (LP) and Peyer's patch (PP) regions at steady state and after induction of a type 2 inflammatory reaction to ovalbumin (OVA) (Brandt et al., 2003) (FIGS. 1A and 8A). To ensure sufficient representation of rare cells, Applicants combined a normalization strategy—removing by flow sorting either a portion of IgD+ naïve B cells, which are the most abundant cell type in PPs, or all CD19+ and CD3+ T cells (FIG. 8B, Methods)—with profiling of a sufficiently large number of cells number (P>0.99 to recover at least 15 cells from each cluster, Methods) by massively parallel scRNA-seq (Haber et al., 2017) (Methods). Applicants obtained 36,797 and 21,270 high quality cells passing initial filtering (Methods) from PP and LP regions, respectively.
Overall, Applicants annotated 27 cell subsets across the two compartments, spanning T cells, B cells, ILCs, dendritic cells (DCs), myeloid cells and stromal cells, in frequencies ranging from 0.07% to 14%. Briefly, Applicants first partitioned the cells from the PP regions by unsupervised clustering (Methods) into 46 clusters, retained the 97% of cells that were robustly assigned cell identities in each cluster (Methods), assigned the cells from the LP regions to the 46 clusters using a classifier (Methods), and visualized the data with scvis (Ding et al., 2018), a deep generative model-based method (FIGS. 1B and 8C, Methods). Next, Applicants identified genes that were differentially expressed between the cells in each cluster and the remaining cells (Table 1, Methods), as well as between pairs of clusters (Table 2), to elucidate identities of similar cell types/states. Applicants excluded from downstream analysis clusters mostly consisting of contaminants from epithelium, likely doublets, or cells with a small number of Unique Molecular Identifiers (UMIs) (FIGS. 1C and 8D), or lacking distinct markers (Methods). Altogether, Applicants retained 27 clusters spanning 85% of the cells and each associated with distinct marker genes (FIG. 8E, Methods).
To induce allergic reaction to OVA, 6 to 7 weeks old mice were sensitized twice, two weeks apart, with 50 μg of OVA plus 1 mg of aluminum potassium sulfate adjuvant via intraperitoneal injection. Two weeks later, mice were orally administered with 50 mg of OVA on every other day for a total of five times. 1 μg of α-CGRP peptide was administered simultaneously when indicated. Mice were deprived of food for 3-4 hours in cages with wood chip bedding for limiting antigen degradation in the stomach before each intragastric challenge.
Isolation of cells from Peyer's patches (PPs). Peyer's patches (PPs) were carefully dissected from the small intestine under a stereo microscope using a fine scissor, pierced once with a fine forcep. Tissues were digested in freshly made digestion buffer (RPMI-1640 containing 100 μg/ml Liberase™ and 50 μg/ml DNase I at 37° C. on a roto-mixer. After 15 min, tissues were very gently mixed using a 1 ml pipette. The supernatant was collected and added to ice-cold MACS buffer (pH 7.4; PBS plus 2% FCS and 2 mM EDTA). Pre-warmed (37° C.) fresh digestion buffer was added to the remaining tissues. After rotation at 37° C. for 15 min, the mixture was vigorously mixed using a 1 ml pipette for 1 min. Supernatants from the two steps were combined and passed through 70 μm filters and stained for FACS (below).
Isolation of cells from the lamina propria (LP). The small intestines were opened longitudinally and washed in ice-cold PBS. For scRNA-seq, roughly 0.5 cm of fragments from each of the distal, middle and proximal regions without visible PPs were collected. Epithelial cells were dissociated by tissue rotation in pre-warmed (37° C.) PBS containing 10 mM EDTA at 37° C. for 15 min, followed by additional incubation on ice for 15 min. Tissues were then shaken vigorously. […]

B1: OVA (protein, UniProt P01012 2-386, looked up)
Ovalbumin: GSIGAASMEFCFDVFKELKVHHANENIFYCPIAIMSALAMVYLGAKDSTRTQINKVVRFDKLPGFGDSIEAQCGTSVNVHSSLRDILNQITKPNDVYSFSLASRLYAEERYPILPEYLQCVKELYRGGLEPINFQTAADQARELINSWVESQTNGIIRNVLQPSSVDSQTAMVLVNAIVFKGLWEKAFKDEDTQAMPFRVTEQESKPVQMMYQIGLFRVASMASEKMKILELPFASGTMSMLVLLPDEVSGLEQLESIINFEKLTEWTSSNVMEERKIKVYLPRMKMEEKYNLTSVLMAMGITDVFSSSANLSGISSAESLKISQAVHAAHAEINEAGREVVGSAEAGVDAASVSEEFRADHPFLFCIKHIATNAVLFFGRCVSP
- 5730508B09Rik percentage of expressing cells in OVA-treated group: 0.268
- Ablim1 percentage of expressing cells in OVA-treated group: 0.403
- Arid3a percentage of expressing cells in OVA-treated group: 0.212
- Arl4a percentage of expressing cells in OVA-treated group: 0.228
- Asph percentage of expressing cells in OVA-treated group: 0.377
- Cdkn2d percentage of expressing cells in OVA-treated group: 0.747
- Cfp percentage of expressing cells in OVA-treated group: 0.422
- Ctsz percentage of expressing cells in OVA-treated group: 0.97
- Fcer1g percentage of expressing cells in OVA-treated group: 0.94
- Gadd45b percentage of expressing cells in OVA-treated group: 0.342
- Gatad1 percentage of expressing cells in OVA-treated group: 0.34
- Gnai2 percentage of expressing cells in OVA-treated group: 0.932
- Grb2 percentage of expressing cells in OVA-treated group: 0.614
- H2-DMa percentage of expressing cells in OVA-treated group: 0.878
- Hnrnpa3 percentage of expressing cells in OVA-treated group: 0.851
- Irf4 percentage of expressing cells in OVA-treated group: 0.256
- Itgb7 percentage of expressing cells in OVA-treated group: 0.669
- Klf3 percentage of expressing cells in OVA-treated group: 0.125
- Klk1b27 percentage of expressing cells in OVA-treated group: 0.974
- Lifr percentage of expressing cells in OVA-treated group: 0.595
- Map3k1 percentage of expressing cells in OVA-treated group: 0.346
- Mark3 percentage of expressing cells in OVA-treated group: 0.139
- Net1 percentage of expressing cells in OVA-treated group: 0.53
- Orai1 percentage of expressing cells in OVA-treated group: 0.274
- Paqr5 percentage of expressing cells in OVA-treated group: 0.52
- Pde4b percentage of expressing cells in OVA-treated group: 0.177
- Pdia3 percentage of expressing cells in OVA-treated group: 0.844
- Pink1 percentage of expressing cells in OVA-treated group: 0.282
- Pten percentage of expressing cells in OVA-treated group: 0.429
- Ptprcap percentage of expressing cells in OVA-treated group: 0.941
- Rab7b percentage of expressing cells in OVA-treated group: 0.223
- Rsrp1 percentage of expressing cells in OVA-treated group: 0.754
- Sema4b percentage of expressing cells in OVA-treated group: 0.531
- Sertad1 percentage of expressing cells in OVA-treated group: 0.12
- Snrnp70 percentage of expressing cells in OVA-treated group: 0.43
- Tmem50a percentage of expressing cells in OVA-treated group: 0.854
- Tmem59 percentage of expressing cells in OVA-treated group: 0.833
- Tmem86a percentage of expressing cells in OVA-treated group: 0.204
- Tsix percentage of expressing cells in OVA-treated group: 0.23
- Txndc5 percentage of expressing cells in OVA-treated group: 0.699
- 5730508B09Rik LN (average fold change) (OVA vs PBS): −0.218
- Ablim1 LN (average fold change) (OVA vs PBS): −0.197
- Arid3a LN (average fold change) (OVA vs PBS): −0.329
- Arl4a LN (average fold change) (OVA vs PBS): −0.276
- Asph LN (average fold change) (OVA vs PBS): −0.195
- Cdkn2d LN (average fold change) (OVA vs PBS): 0.244
- Cfp LN (average fold change) (OVA vs PBS): 0.312
- Ctsz LN (average fold change) (OVA vs PBS): 0.156
- Fcer1g LN (average fold change) (OVA vs PBS): 0.160
- Gadd45b LN (average fold change) (OVA vs PBS): −0.220
- Gatad1 LN (average fold change) (OVA vs PBS): −0.199
- Gnai2 LN (average fold change) (OVA vs PBS): −0.175
- Grb2 LN (average fold change) (OVA vs PBS): −0.222
- H2-DMa LN (average fold change) (OVA vs PBS): 0.190
- Hnrnpa3 LN (average fold change) (OVA vs PBS): 0.164
- Irf4 LN (average fold change) (OVA vs PBS): −0.248
- Itgb7 LN (average fold change) (OVA vs PBS): 0.238
- Klf3 LN (average fold change) (OVA vs PBS): −0.428
- Klk1b27 LN (average fold change) (OVA vs PBS): 0.170
- Lifr LN (average fold change) (OVA vs PBS): 0.265
- Map3k1 LN (average fold change) (OVA vs PBS): −0.227
- Mark3 LN (average fold change) (OVA vs PBS): −0.383
- Net1 LN (average fold change) (OVA vs PBS): 0.285
- Orai1 LN (average fold change) (OVA vs PBS): −0.245
- Paqr5 LN (average fold change) (OVA vs PBS): 0.279
- Pde4b LN (average fold change) (OVA vs PBS): −0.282
- Pdia3 LN (average fold change) (OVA vs PBS): 0.157
- Pink1 LN (average fold change) (OVA vs PBS): −0.291
- Pten LN (average fold change) (OVA vs PBS): −0.226
- Ptprcap LN (average fold change) (OVA vs PBS): 0.159
- Rab7b LN (average fold change) (OVA vs PBS): −0.285
- Rsrp1 LN (average fold change) (OVA vs PBS): 0.195
- Sema4b LN (average fold change) (OVA vs PBS): 0.221
- Sertad1 LN (average fold change) (OVA vs PBS): −0.396
